In PMC3491106 (Biochemistry, 2012) one finds Kd data, which are given here for two molecules.

Assay [1] concerns the target T1, His6-EhFormin1 GBD-FH3 domain tandem (a.a. 69-418) (E. histolytica, UniProt C4M622 69-418).
T1 sequence (looked up): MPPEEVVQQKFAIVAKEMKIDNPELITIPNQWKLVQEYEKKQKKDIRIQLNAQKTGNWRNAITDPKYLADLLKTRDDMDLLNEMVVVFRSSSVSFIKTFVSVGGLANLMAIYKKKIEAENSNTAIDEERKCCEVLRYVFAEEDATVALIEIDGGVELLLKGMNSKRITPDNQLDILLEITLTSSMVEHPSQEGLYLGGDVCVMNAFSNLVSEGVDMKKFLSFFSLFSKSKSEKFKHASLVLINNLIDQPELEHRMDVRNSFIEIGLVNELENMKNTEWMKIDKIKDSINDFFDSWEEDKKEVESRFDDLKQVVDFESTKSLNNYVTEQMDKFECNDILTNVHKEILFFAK
As to the kind of experiment: SPR.

Assay [2] has as its target His6-EhFormin1 fusion (GBD-FH3 domain tandem, 40-residue linker, FH2-DAD fragment) (E. histolytica). In words: SPR. (In general: SPR reads the build-up and loss of mass on a sensor chip optically.)

Substitutions are numbered along the chain they refer to. Bounds are passed on as bounds.

B1: EhRho1·GTPγS (Entamoeba histolytica Rho1, wild type, loaded with GTPγS) (natural protein, E. histolytica)
chain: MLAFSDMNTGAGKIENGKKALKIVVVGDGAVGKTCLLLAFSKGEIPTAYVPTVFENFSHVMKYKNEEFILHLWDTAGQEEYDRLRPLSYADSDVVLLCFAVNNRTSFDNISTKWEPEIKHYIDTAKTVLVGLKVDLRKDGSDDVTKQEGDDLCQKLGCVAYIEASSVAKIGLNEVFEKSVDCIFSNKPVPK
As for B1, the dissociation constant Kd (usually a measure of binding affinity in units of concentration) is roughly 3000 nM in assay [1] and 3000 nM in assay [2].

B2: EhRho1 Arg83 to Gln mutant (natural protein)
chain: B1 chain with R83Q
In turn, B2 showed a dissociation constant Kd in assay [1] greater than 100000 nM.
